In patent publication CN101538329A:

B1: A10 单克隆噬菌体抗体 (phage-displayed human anti-Aβ scFv, clone A10) (scFv, part only; not given: linker, tag and phage fusion, not shown: small tags and cut ends; large carriers)
scFv (part 1 of 2), part: EVQLVQSGAEVKRPGSSVNVSCKASGGTLSNYGLSWVRQAPGQGLEWMGGIIPSFGPANYAQIFQGRVTITADESTNTAYMELRSLTSDDTAVYYCAREGGVGVATTYWLDPWGQGTTVTVSS
scFv (part 2 of 2), part: HFMLTQPHSVSESPGKTVTISCTRSSGSIASTYVHWYQQRPGTSPTTVIYEDNRRHSRVPDRFSGSIDSSSNSASLTISGLKTEDEGDYYCQSYDSTNAWVFGGGTKVTVLG
B2: F2 单克隆噬菌体抗体 (phage-displayed human anti-Aβ scFv, clone F2) (scFv, part only; not given: linker, tag and phage fusion, not shown: small tags and cut ends; large carriers)
scFv (part 1 of 2), part: B1 scFv (part 1 of 2), part
scFv (part 2 of 2), part: B1 scFv (part 2 of 2), part
B3: A10 可溶性抗Aβ scFv (soluble scFv of clone A10 expressed in E. coli HB2151) (scFv, V domains shown, not shown: small tags and cut ends)
VH: B1 scFv (part 1 of 2), part
VL: B1 scFv (part 2 of 2), part
B4: F2 可溶性抗Aβ scFv (soluble scFv of clone F2 expressed in E. coli HB2151) (scFv, V domains shown, not shown: small tags and cut ends)
VH: B1 scFv (part 1 of 2), part
VL: B1 scFv (part 2 of 2), part

Tests used:
[1] = biological target: β-淀粉样多肽 Aβ1-42 (beta-amyloid peptide, purified) (human) (UniProt P05067); test: repeated phage ELISA on coated Aβ, OD490, against negative control
Chain of UniProt P05067 (P05067 672-713 limits assumed): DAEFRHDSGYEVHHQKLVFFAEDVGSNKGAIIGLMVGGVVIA

[2] = biological target: β-淀粉样多肽 Aβ1-42 (beta-amyloid peptide, purified) (human) (UniProt P05067); test: phage ELISA on coated Aβ, OD490, against negative control (2% MPBS)
[3] = biological target: β-淀粉样多肽 Aβ1-42 (beta-amyloid peptide, purified) (human) (UniProt P05067); test: ELISA on coated Aβ, culture supernatant fraction; induced against uninduced strain
[4] = biological target: β-淀粉样多肽 Aβ1-42 (beta-amyloid peptide, purified) (human) (UniProt P05067); test: ELISA of soluble scFv fractions on coated Aβ, anti-c-myc detection; induced against uninduced strain
[5] = biological target: β-淀粉样多肽 Aβ1-42 (beta-amyloid peptide, purified) (human) (UniProt P05067); test: ELISA on coated Aβ, whole-cell protein fraction; induced against uninduced strain

Binder | ELISA A值 fold over negative control [1] [fold] | ELISA A值 fold over negative control [2] [fold] | ELISA A值 fold of induced over uninduced strain [3] [fold] | ELISA A值 fold of induced over uninduced strain [4] [fold] | ELISA A值 fold of induced over uninduced strain [5] [fold]
B1 | > 5 | 2 |  |  | 
B2 | > 5 | > 2 |  |  | 
B3 |  |  | > 5 | > 2 | > 5
B4 |  |  | > 5 | > 2 | > 5
